From patent publication US20170369592A1, “NOVEL ANTI-FIBROBLAST ACTIVATION PROTEIN (FAP) ANTIBODIES AND USES DERIVED THEREOF” (Mabimmune Diagnostics AG, priority 2015, published 2017)

Assays:
[1] = tested on: human invasive ductal carcinoma and invasive lobular carcinoma sections; experiment: Confocal immunofluorescence on human carcinoma cryosections; details: Cyanine 3 labelled antibody
Procedure: NI-206.82C2 was labelled with Cyanine 3 for fluorescent imaging (Cy3 conjugation kit: Innova Biosciences, 340-0030) and antibody labelling was validated using a spectophotometer. Cryosections from human invasive ductal carcinoma tissues (FIG. 9, A) and invasive lobular carcinoma (FIG. 9, B) were fixed for 5 minutes in ice cold acetone and allowed to dry for 10 minutes before washing in PBS. The sections were then incubated for 1 hr at room temperature in 5% BSA in PBS. The tissue sections were then incubated with Cyanine 3 prelabelled antibodies overnight at 4° C., and then washed three times in PBS before incubation with DAPI at 0.5 μg/mL. Sections were then washed three additional times in PBS and mounted in Lisbeth's mounting medium before imaging on a SP8 confocal microscope (Leica Microsystems).

transmembrane human FAP = biological target: T1, transmembrane human FAP (Homo sapiens, UniProt Q12884); experiment: Flow cytometry on FAP-HEK293 cells at pH 7.4, 6.8, 6.4; assay type: cell-based; details: pH 6.4 and 6.8 vs pH 7.4, FAP-HEK293 cells, Cy5 labelled
T1 construct: retrovirus encoding full length human FAP cDNA; host or cells: HEK293 (FAP-HEK293, G418 selected)
T1 sequence (Q12884 1-760): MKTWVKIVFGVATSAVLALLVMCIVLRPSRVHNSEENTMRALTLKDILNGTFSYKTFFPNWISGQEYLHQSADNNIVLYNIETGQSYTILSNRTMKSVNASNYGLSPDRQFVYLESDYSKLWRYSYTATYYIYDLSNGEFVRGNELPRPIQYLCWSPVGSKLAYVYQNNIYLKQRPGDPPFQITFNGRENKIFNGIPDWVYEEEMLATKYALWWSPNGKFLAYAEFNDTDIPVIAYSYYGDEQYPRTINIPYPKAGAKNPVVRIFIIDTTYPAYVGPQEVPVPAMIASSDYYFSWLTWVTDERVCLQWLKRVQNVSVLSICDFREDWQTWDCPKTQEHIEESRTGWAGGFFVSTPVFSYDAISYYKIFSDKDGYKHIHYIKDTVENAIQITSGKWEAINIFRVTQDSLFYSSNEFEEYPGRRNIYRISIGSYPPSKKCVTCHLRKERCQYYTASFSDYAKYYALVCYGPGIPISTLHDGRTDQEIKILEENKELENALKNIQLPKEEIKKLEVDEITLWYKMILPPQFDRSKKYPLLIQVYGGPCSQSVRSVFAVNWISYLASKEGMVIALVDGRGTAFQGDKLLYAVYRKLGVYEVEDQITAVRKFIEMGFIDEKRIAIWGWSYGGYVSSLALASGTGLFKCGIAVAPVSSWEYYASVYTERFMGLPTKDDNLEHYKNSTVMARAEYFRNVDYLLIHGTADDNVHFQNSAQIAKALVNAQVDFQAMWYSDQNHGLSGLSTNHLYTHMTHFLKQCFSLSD
Procedure: To evaluate the binding of NI-206.82C2 to transmembrane human FAP, an FAP expressing HEK293 cell line was received from the National Institutes of Health, Bethesda, Md. The generation of this FAP expressing HEK293 cells is described in: J. Exp. Med. 2013 Vol. 210 No. 6 1125-1135.
HEK293 cells were transduced with retrovirus encoding full length human FAP cDNA. Cloning was performed using Fast Cloning Pack and FastDigest restriction enzymes (both from Fermentas). Transient retroviral supernatants were generated by transfecting 293GP cells with the FAP plasmid using Lipofectamine 2000 (Invitrogen). Retroviral supernatants were collected at 48 h after transfection and centrifuged onto Retronectin-coated (10 μg/ml; Takara), non-tissue culture-treated 6-well plates at 2,000 G for 2 h at 32° C. These retroviral supernatants where then used to transduce HEK293 cells overnight. Transduced FAP-HEK293 cells were selected with 1 mg/ml G418 (CellGro). […]
To analyze antibody binding, fluorescent activated flow cytometry was performed using a BD Fortesa device for forward scatter, side scatter, and the mean fluorescent intensity (MFI) of the Cy5 channel was recorded using a […] laser excitation and 600/20 filter. Viable cells were gated by forward and side scatter, and singlets/doublet exclusion, and the MFI for Cy5 was quantified using FlowJo software Version 10.1.

binding to human invasive ductal carcinoma and invasive lobular carcinoma sections [1]: specifically binds | binding to transmembrane FAP, pH dependence (Δ MFI) (transmembrane human FAP): higher affinity at lower pHs
B1: NI-206.82C2: recombinant human memory B cell-derived monoclonal anti-FAP IgG1 antibody, variable regions in FIG. 1A, FAP inhibitory (antibody, V domains shown)
VH: QVQLQQSGPGLVKPSQTLSLTCAISGDSVSSNSVTWNWIRQSPSRGLEWLGRTYYRSKWYNDYAVSVKGRITINPDTSKNQFYLQLKSVTPEDAAVYYCARDSSILYGDYWGQGTLVTVSS
VL: QAVLTQPSSLSASPGASASLTCTLPSGINVGTYRIFWFQQKPGSPPQYLLSYKSDSDNHQGSGVPSRFSGSKDASANAGILLISGLQSEDEADYYCMIWHSSAWVFGGGTKLTVL
